Experimental data as given in patent publication US5693476.

Assays:
[1] = target: GST-syntaxin 1A deletion mutant Syn 1A17 (amino acids 4-240) (Schistosoma japonicum; rat); assay: GST-syntaxin deletion mutant on glutathione beads, soluble ligand, Western blot densitometry; FIG. 4C row 5 from top, row label only in the figure (assigned by Table 1 order and paragraph 328)
[2] = target: GST-syntaxin 1A cytoplasmic domain fusion protein (Syn 1A11, amino acids 4-266), immobilized on glutathione agarose beads (Schistosoma japonicum; rat); assay: 20S complex assembly on GST-syntaxin beads with SNAP-25, VAMP, α-SNAP and NSF added together, ATPγS, 25° C., Western blot densitometry, FIG. 6A
[3] = target: GST-syntaxin 1A cytoplasmic domain fusion protein (Syn 1A11, amino acids 4-266), immobilized on glutathione agarose beads (Schistosoma japonicum; rat); assay: GST-syntaxin deletion mutant on glutathione beads, soluble ligand, Western blot densitometry; FIG. 4C row 6 from top, row label only in the figure (assigned by Table 1 order and paragraph 328)
[4] = target: GST-syntaxin 1A H3 domain construct Syn 1A16 (amino acids 191-266) (Schistosoma japonicum; rat); assay: 20S complex on GST-Syn 1A16 beads, ATP and Mg++, Western blot densitometry
[5] = target: GST-syntaxin 1A deletion mutant Syn 1A5 (amino acids 4-114) (Schistosoma japonicum; rat); assay: GST-syntaxin deletion mutant on glutathione beads, soluble ligand, Western blot densitometry; FIG. 4C row 2 from top, row label only in the figure (assigned by Table 1 order and paragraph 328)
[6] = target: GST-syntaxin 1A deletion mutant Syn 1A6 (amino acids 4-190) (Schistosoma japonicum; rat); assay: 20S complex assembly on GST-syntaxin beads with all four proteins together, ATPγS, 18° C. overnight MgCl2, Western blot densitometry, FIG. 6B
[7] = target: GST-syntaxin 1A H3 domain construct Syn 1A16 (amino acids 191-266) (Schistosoma japonicum; rat); assay: as above
[8] = target: GST-syntaxin 1A deletion mutant Syn 1A13 (amino acids 4-221) (Schistosoma japonicum; rat); assay: as above
[9] = target: GST-syntaxin 1A deletion mutant Syn 1A17 (amino acids 4-240) (Schistosoma japonicum; rat); assay: as above
[10] = target: GST-syntaxin 1A cytoplasmic domain fusion protein (Syn 1A11, amino acids 4-266), immobilized on glutathione agarose beads (Schistosoma japonicum; rat); assay: as above
[11] = target: GST-syntaxin 1A (Syn1A11) point mutant 45 (Schistosoma japonicum; rat); assay: GST-syntaxin point mutant on glutathione beads, soluble ligand, Western blot densitometry, FIG. 5B
[12] = target: GST-syntaxin 1A (Syn1A11) point mutant M4: V223A, Q226A (Schistosoma japonicum; rat); assay: as above
[13] = target: GST-syntaxin 1A (Syn1A11) point mutant M6: A240V, V244A (Schistosoma japonicum; rat); assay: as above
[14] = target: GST-syntaxin 1A (Syn1A11) point mutant M3: L212A, F216A (Schistosoma japonicum; rat); assay: as above
[15] = target: GST-syntaxin 1A (Syn1A11) point mutant 13 (four point mutations) (Schistosoma japonicum; rat); assay: as above
[16] = target: GST-syntaxin 1A (Syn1A11) point mutant M1: R198A, I202A (Schistosoma japonicum; rat); assay: as above
[17] = target: GST-syntaxin 1A (Syn1A11) point mutant M2: L205A, I209A (Schistosoma japonicum; rat); assay: as above
[18] = target: GST-syntaxin 1A (Syn1A11) point mutant M5: I230A, I233A (Schistosoma japonicum; rat); assay: as above
[19] = target: GST-syntaxin 1A (Syn1A11) point mutant 12 (four point mutations) (Schistosoma japonicum; rat); assay: as above
[20] = target: GST-syntaxin 1A (Syn1A11) point mutant 34 (Schistosoma japonicum; rat); assay: as above
[21] = target: GST-syntaxin 1A cytoplasmic domain fusion protein (Syn 1A11, amino acids 4-266), immobilized on glutathione agarose beads (Schistosoma japonicum; rat); assay: GST-syntaxin 1A (wild type) on glutathione beads, soluble ligand, Western blot densitometry, FIG. 5B
[22] = target: GST-syntaxin 1A deletion mutant Syn 1A6 (amino acids 4-190) (Schistosoma japonicum; rat); assay: GST-syntaxin deletion mutant on glutathione beads, soluble ligand, Western blot densitometry; FIG. 4C row 3 from top, row label only in the figure (assigned by Table 1 order and paragraph 328)
[23] = target: GST-syntaxin 1A deletion mutant Syn 1A4 (amino acids 8-76) (Schistosoma japonicum; rat); assay: GST-syntaxin deletion mutant on glutathione beads, soluble ligand, Western blot densitometry; FIG. 4C row 1 from top, row label only in the figure (assigned by Table 1 order and paragraph 328)
[24] = target: GST-syntaxin 1A cytoplasmic domain fusion protein (Syn 1A11, amino acids 4-266), immobilized on glutathione agarose beads (Schistosoma japonicum; rat); assay: 20S complex assembly on GST-syntaxin beads with SNAP-25, VAMP, α-SNAP and NSF added together, ATP, 25° C., Western blot densitometry, FIG. 6A
[25] = target: GST-syntaxin 1A deletion mutant Syn 1A13 (amino acids 4-221) (Schistosoma japonicum; rat); assay: GST-syntaxin deletion mutant on glutathione beads, soluble ligand, Western blot densitometry; FIG. 4C row 4 from top, row label only in the figure (assigned by Table 1 order and paragraph 328)

Chain of His-tagged α-SNAP (soluble NSF attachment protein), soluble recombinant (P81125 whole entry): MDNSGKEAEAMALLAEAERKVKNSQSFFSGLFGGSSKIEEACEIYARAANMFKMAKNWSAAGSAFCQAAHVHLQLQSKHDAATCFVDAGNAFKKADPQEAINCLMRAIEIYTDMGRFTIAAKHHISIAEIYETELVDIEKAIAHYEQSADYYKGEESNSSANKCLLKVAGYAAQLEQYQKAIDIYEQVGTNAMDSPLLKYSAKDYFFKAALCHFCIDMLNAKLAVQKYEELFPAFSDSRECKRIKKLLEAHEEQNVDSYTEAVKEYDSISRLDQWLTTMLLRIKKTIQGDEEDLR
Chain of SNAP-25 (synaptosomal-associated protein of 25 kDa), soluble recombinant (chain): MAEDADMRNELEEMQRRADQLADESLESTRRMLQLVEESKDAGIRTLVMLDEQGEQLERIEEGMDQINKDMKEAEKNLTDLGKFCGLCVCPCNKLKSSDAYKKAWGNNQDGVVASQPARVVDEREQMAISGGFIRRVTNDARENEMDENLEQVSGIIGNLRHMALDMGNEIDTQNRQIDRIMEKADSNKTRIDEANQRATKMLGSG

Substance | densitometry pixel value [1] [pixel value] | densitometry pixel value [2] [pixel value] | densitometry pixel value [3] [pixel value] | percent dissociated in the presence of ATP and Mg++ [4] [%] | densitometry pixel value [5] [pixel value] | densitometry pixel value [6] [pixel value] | densitometry pixel value [7] [pixel value] | densitometry pixel value [8] [pixel value] | densitometry pixel value [9] [pixel value] | densitometry pixel value [10] [pixel value] | densitometry pixel value [11] [pixel value] | densitometry pixel value [12] [pixel value] | densitometry pixel value [13] [pixel value] | densitometry pixel value [14] [pixel value] | densitometry pixel value [15] [pixel value] | densitometry pixel value [16] [pixel value] | densitometry pixel value [17] [pixel value] | densitometry pixel value [18] [pixel value] | densitometry pixel value [19] [pixel value] | densitometry pixel value [20] [pixel value] | also measured
His-tagged α-SNAP (soluble NSF attachment protein), soluble recombinant (from UniProt P81125) | 1660 | 1490 | 1670 | 0 | 0 | 0 | 1420 | 0 | 1070 | 1040 | 7 | 43 | 633 | 23 | 15 | 53 | 36 | 25 | 23 | 10 | densitometry pixel value [21]: 414 pixel value; densitometry pixel value [22]: 0 pixel value; densitometry pixel value [23]: 0 pixel value; densitometry pixel value [24]: 132 pixel value; densitometry pixel value [25]: 0 pixel value
VAMP (vesicle-associated membrane protein; VAMP 2), soluble recombinant | 0 | 528 | 286 | 0 | 0 | 0 | 944 | 1310 | 812 | 691 | 0 | 0 | 0 | 0 | 0 | 37 | 17 | 0 | 0 | 0 | densitometry pixel value [21]: 2610 pixel value; densitometry pixel value [22]: 0 pixel value; densitometry pixel value [23]: 0 pixel value; densitometry pixel value [24]: 32 pixel value; densitometry pixel value [25]: 0 pixel value
SNAP-25 (synaptosomal-associated protein of 25 kDa), soluble recombinant | 623 | 839 | 797 | 5 | 19 | 0 | 504 | 1340 | 415 | 85 | 640 | 754 | 875 | 866 | 143 | 586 | 672 | 824 | 361 | 712 | densitometry pixel value [21]: 555 pixel value; densitometry pixel value [22]: 9 pixel value; densitometry pixel value [23]: 19 pixel value; densitometry pixel value [24]: 768 pixel value; densitometry pixel value [25]: 417 pixel value
